Measurements: paper PMC3526264, “The C-terminus of Dpb2 is required for interaction with Pol2 and for cell viability” (Nucleic Acids Research, 2012)
One block for each binder: values may come before it.

Target: T1, Pol2 (S. cerevisiae, UniProt P21951 1-2222)
T1 construct: Pol2, catalytic subunit of DNA polymerase epsilon, S. cerevisiae; over-expression vector pJL1; also called catalytic subunit of DNA polymerase ε; source: S. cerevisiae pY116, galactose-induced over-expression (pJL1), co-expressed with the other Pol ε subunits
Assay: co-purification (ion-exchange and size-exclusion chromatography); Pol2, Dpb2-201, Dpb3 and Dpb4 co-over-expressed in S. cerevisiae pY116; Pol ε purification protocol as in ref. 23; Coomassie-stained 10% SDS-PAGE, band intensities measured
Conditions: partners not purified

T1 sequence (P21951 whole entry): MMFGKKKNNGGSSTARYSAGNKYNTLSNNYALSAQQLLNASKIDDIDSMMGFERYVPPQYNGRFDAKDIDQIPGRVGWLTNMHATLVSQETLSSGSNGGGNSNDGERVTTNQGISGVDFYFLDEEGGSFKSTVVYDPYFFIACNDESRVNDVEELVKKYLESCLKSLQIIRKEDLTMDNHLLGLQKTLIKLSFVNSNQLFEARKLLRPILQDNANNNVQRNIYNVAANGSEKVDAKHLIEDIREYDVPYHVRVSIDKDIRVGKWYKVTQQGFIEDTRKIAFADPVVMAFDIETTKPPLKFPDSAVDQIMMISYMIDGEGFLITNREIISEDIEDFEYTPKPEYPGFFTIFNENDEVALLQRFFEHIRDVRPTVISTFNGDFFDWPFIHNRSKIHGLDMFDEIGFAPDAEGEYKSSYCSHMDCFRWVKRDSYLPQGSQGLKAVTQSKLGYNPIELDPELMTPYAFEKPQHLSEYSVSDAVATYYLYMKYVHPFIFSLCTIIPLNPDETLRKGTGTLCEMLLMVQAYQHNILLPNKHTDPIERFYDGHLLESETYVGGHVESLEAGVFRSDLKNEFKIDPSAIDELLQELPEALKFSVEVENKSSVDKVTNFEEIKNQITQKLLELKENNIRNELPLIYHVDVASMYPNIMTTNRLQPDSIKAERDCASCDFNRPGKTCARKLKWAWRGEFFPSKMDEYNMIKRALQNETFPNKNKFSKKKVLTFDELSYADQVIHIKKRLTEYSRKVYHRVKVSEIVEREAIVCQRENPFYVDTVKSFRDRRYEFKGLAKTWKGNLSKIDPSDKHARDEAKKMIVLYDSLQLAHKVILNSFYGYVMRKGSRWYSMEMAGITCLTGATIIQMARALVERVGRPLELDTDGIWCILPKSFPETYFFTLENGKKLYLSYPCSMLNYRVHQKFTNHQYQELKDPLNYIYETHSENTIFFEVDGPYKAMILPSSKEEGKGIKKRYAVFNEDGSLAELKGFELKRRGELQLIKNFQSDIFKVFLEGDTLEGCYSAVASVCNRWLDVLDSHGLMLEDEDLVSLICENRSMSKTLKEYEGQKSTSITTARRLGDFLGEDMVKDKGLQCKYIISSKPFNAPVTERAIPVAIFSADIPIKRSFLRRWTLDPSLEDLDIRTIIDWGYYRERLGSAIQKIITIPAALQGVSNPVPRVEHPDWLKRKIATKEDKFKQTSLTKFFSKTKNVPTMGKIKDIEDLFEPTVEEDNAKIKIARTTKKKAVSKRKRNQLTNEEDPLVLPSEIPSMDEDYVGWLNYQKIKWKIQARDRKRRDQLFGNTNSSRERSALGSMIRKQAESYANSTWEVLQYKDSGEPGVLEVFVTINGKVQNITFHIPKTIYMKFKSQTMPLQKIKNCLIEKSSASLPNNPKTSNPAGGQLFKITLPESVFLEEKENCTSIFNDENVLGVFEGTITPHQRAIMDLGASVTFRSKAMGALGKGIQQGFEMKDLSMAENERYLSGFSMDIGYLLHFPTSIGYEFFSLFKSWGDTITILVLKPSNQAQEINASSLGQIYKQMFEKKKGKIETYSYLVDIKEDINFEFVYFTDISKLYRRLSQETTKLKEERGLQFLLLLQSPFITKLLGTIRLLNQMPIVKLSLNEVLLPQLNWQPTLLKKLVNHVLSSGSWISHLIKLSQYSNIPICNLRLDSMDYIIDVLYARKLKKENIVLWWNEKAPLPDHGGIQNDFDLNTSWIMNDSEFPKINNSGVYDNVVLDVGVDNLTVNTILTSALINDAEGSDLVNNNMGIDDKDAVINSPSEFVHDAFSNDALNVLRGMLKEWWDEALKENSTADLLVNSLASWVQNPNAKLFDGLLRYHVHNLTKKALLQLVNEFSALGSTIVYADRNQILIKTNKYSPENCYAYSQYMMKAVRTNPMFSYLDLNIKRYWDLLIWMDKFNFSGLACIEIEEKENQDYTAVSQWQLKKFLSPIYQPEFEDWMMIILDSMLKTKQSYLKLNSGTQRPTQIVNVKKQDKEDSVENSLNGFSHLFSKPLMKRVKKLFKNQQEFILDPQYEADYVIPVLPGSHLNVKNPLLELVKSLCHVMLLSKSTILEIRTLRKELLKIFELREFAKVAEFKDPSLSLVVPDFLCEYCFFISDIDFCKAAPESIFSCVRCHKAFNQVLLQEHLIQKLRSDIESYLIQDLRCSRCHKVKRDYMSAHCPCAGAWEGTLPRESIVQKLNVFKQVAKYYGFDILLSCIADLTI

stoichiometry N: ~1.1 Dpb3 per Pol2
B1: Dpb3 (natural protein, S. cerevisiae, UniProt P27344 1-201, looked up)
chain: MSNLVKEKAPVFPISKVKKIAKCDPEYVITSNVAISATAFAAELFVQNLVEESLVLAQLNSKGKTSLRLSLNSIEECVEKRDNFRFLEDAIKQLKKNSALDKKRELNMQPGRSDQEVVIEEPELHEDDGVEEEEEEDEVSEEEEPVHNEELLDDSKDQQNDKSTRSVASLLSRFQYKSALDVGEHSDSSDIEVDHTKSTDP
notes: Dpb3, subunit of DNA polymerase epsilon, S. cerevisiae; over-expression vector pJL5 (Dpb3 and Dpb4); source: S. cerevisiae pY116, galactose-induced over-expression (pJL5), co-expressed with the other Pol ε subunits

stoichiometry N: ~1.4 Dpb4 per Pol2
B2: Dpb4 (natural protein, S. cerevisiae, UniProt Q04603 1-196, looked up)
chain: MPPKGWRKDAQGNYPTTSYIKEQENITIQDLLFPKSTIVNLAREVPQQSGKKLLINKDASLALQRGATVFVNHLLLFAREIAKSQDKKSCSVDDVLSALDHIGHSALKGPVRDKLDEYQAAVEQRKKEKLDSGEVDADGDIDMGEDKENVPVEKVKEHDEIEEQGDALQDVEESSEKKQKTESQDVETRVQNLEQT
notes: Dpb4, subunit of DNA polymerase epsilon, S. cerevisiae; over-expression vector pJL5 (Dpb3 and Dpb4); source: S. cerevisiae pY116, galactose-induced over-expression (pJL5), co-expressed with the other Pol ε subunits
